Source: patent US20130109048A1, “METHOD FOR IN-VITRO MONITORING OF NEURONAL DISORDERS AND USE THEREOF” (ECOLE POLYTECHNIQUE FEDERALE DE LAUSANNE (EPFL), priority 2010, published 2013)
Entries after “also recorded” stand apart in the source; their conditions may differ.

Columns and labels:
[1] = tested on: rat primary cortical neurons; assay: Neuronal viability by counts of NeuN-positive nuclei; assay type: cell-based; conditions: cultures treated with K252a 10 nM or 100 nM
Protocol: Cultures were washed with PBS and fixed in 4% paraformaldehyde (Fluka/Sigma, Buchs, Switzerland) or in methanol (Merck, Germany) for PSD95 (Post-synaptic density protein of 95 kDa) staining for 10 min at 4° C. Cultures were incubated with NeuN antibody which reacts with fox-3 (1:500, Chemicon, Temecula, Calif.) or 2B4 antibody which reacts with huntingtin (1:500 Millipore, Zug, Switzerland), antibody which reacts with postsynaptic density protein of 95 kDa (PSD95) (Sans et al., 2000, J. Neurosci. 20:1260-71) (1:200, Affinity Bioreagents, Golden, Colo.) and antibody which reacts neuronal class III beta-tubulin Tuj1 (Jepsen et al., 2000, Cell 102(6): 753-763) (1:2000, Covance, Emerville, Calif.) in PBS containing 10% normal goat serum (NGS, Gibco, Invitrogen, Basel, Switzerland) and 0.1% Triton X-100 (TX, Fluka, Sigma, Buchs, Switzerland). Cultures were rinsed three times in PBS and then incubated for 1 hour with fluorescent goat anti-mouse secondary antibodies (for NeuN: 1:1000 Cy3-conjugated antibody from Jackson Immunoresearch Laboratories, WestGrove, Pa.; for 2B4: 1:1000 Alexa Fluor® 488-conjugated antibodies from Invitrogen, Basel, Switzerland, for Tuj1: 1:1000 Alexa Fluor® 594-conjugated antibody from Invitorgen, Basel, Switzerland). Where indicated, cultures were stained with Hoechst 33342 dye (Invitrogen, Basel, Switzerland). […]

[2] = tested on: rat primary cortical neurons; assay: MEA recording of spontaneous electrical activity (population bursts), TrkB inhibitor experiments; assay type: cell-based; conditions: K252a 10 nM or 100 nM; 30 min recordings 45 min and 24 h after addition; cultures at 14-15 DIV
Protocol: Cortical cells were prepared and cultured as described previously (Van Pelt et al., 2004, IEEE Trans. Biomed. Eng., 51: 2051-2062). Cells were plated on multielectrode arrays (MEAs) and/or culture dishes, with prior surface coating by polyethylenimine (10 mg/ml, Fluka) and laminin (0.02 mg/ml, Gibco) in Neurobasal medium (MEAs) or poly-L-lysine (0.01%) in water (culture dishes), respectively, which allow the cells to readily attach to the surface and extend neurites. Plating density was 1′500 cells/mm^2 for MEAs, allowing for quick network formation and high multichannel electrophysiological recordings efficiency. A lower density of 500 cells/mm^2 was used for culture dishes, to facilitate cell counting and morphological analysis. […]
After 5 min of accommodation time following the mounting of each MEA inside the recording setup, spontaneous electrical activity from the cultured neurons was detected, amplified, and recorded at each of the 60 substrate extracellular electrodes simultaneously for 30 min at 20 kHz/channel. Recorded traces consisted in electric voltage signals whose sudden small large amplitude fluctuations are known to be produced by the nerve impulse discharges emitted by neurons growing in close proximity to the substrate electrodes that detect them extracellularly, directly related to the firing of action potentials by the neurons in the proximity of each electrode. […]

[3] = tested on: htt171-82Q-expressing cortical cells; assay: MEA recording of spontaneous electrical activity in Huntington's disease cell model with BDNF; assay type: cell-based, rat; conditions: BDNF 50 ng/ml added twice weekly
Source text: Cells modeling in-vitro HD-related cortical dysfunction were engineered for use in a method according to the invention for showing that the effects of molecular changes on synaptic changes in cortical microcircuits exposed to mutant htt fragments could be measured by a method according to the invention. To this end, cortical cells E16-E19 Wistar rat embryos (Charles River, France) were engineered by lentiviral gene transfer using Human Immunodeficiency Virus Type 1 (HIV-1)-derived vectors to express the first 171 amino acids of normal or mutated htt under the control of a tetracycline response element-containing promoter as described in Rudinskiy et al., 2009, J. Neurochem., 111: 460-472 (FIGS. 1A,B) to achieve high transduction efficiency and high levels of transgene expression in rat primary cortical neurons following the protocol below.
Plasmids encoding the first 171 amino acids of mutated htt (htt171-82Q) (FIG. 6, SEQ ID NO: 14) or wild-type htt (htt171-18Q) (FIG. 6, SEQ ID NO: 15) under the control of a tetracycline-regulated element promoter, or the tetracycline-regulatable transactivator (tTA1) under the control of a phosphoglycerate kinase promoter were used to prepare self-inactivating lentiviral vectors (FIG. 1A) as described previously (Regulier et al., 2003, Hum. Mol. Genet., 12: 2827-2836). Lentiviral particles were re-suspended in phosphate-buffered saline (PBS)+1% bovine serum albumin and the particle content of viral batches was assessed by p24 ELISA (RETROtek, Gentaur, Paris, France) (Viral titering involves capture of p24 viral protein from the sample on a microtiter plate and detection with a second anti-p24 antibody and visualization via a colorimeteric horseradish-generated product detected at 450 nm) Cells were plated as described below. On the day following cell plating, cultures were infected with lentiviruses at ratios of 150 ng p24/1000 cells (tTA1) and 120 ng p24/1000 cells (htt171-82Q or htt171-18Q) (FIG. 1B).
Cortical cells were prepared and cultured as described previously (Van Pelt et al., 2004, IEEE Trans. Biomed. Eng., 51: 2051-2062). Cells were plated on multielectrode arrays (MEAs) and/or culture dishes, with prior surface coating by polyethylenimine (10 mg/ml, Fluka) and laminin (0.02 mg/ml, Gibco) in Neurobasal medium (MEAs) or poly-L-lysine (0.01%) in water (culture dishes), respectively, which allow the cells to readily attach to the surface and extend neurites. Plating density was 1′500 cells/mm^2 for MEAs, allowing for quick network formation and high multichannel electrophysiological recordings efficiency. A lower density of 500 cells/mm^2 was used for culture dishes, to facilitate cell counting and morphological analysis. Medium containing Neurobasal, 2% B-27 supplement (GIBCO, Invitrogen Corporation, ref 17504) and 10% horse serum (from GIBCO, Invitrogen Corporation, ref. 16050-130) was changed three times per week by removing 0.7 ml and adding 1 ml of fresh medium. Where indicated, recombinant human BDNF (R&D Systems, Minneapolis, Minn., USA) at a concentration of 50 ng/ml was added to the medium twice a week starting from in vitro day 4.
Commercial MEAs with planar TiN substrate electrodes (MultichannelSystems, Reutlingen, Germany) such as described in Potter and De Marse, 2001, above were employed for recording over long-term experiments the spontaneous electrical activity of mammalian neurons, maintained under healthy conditions ex-vivo. […]

[4] = tested on: htt171-82Q-expressing cortical cells; assay: Counting of PSD95-positive plasma membrane subdomains (punctae) by immunostaining; assay type: cell-based, rat; conditions: BDNF 50 ng/ml added twice weekly; htt171-82Q cells
Protocol: Cultures were washed with PBS and fixed in 4% paraformaldehyde (Fluka/Sigma, Buchs, Switzerland) or in methanol (Merck, Germany) for PSD95 (Post-synaptic density protein of 95 kDa) staining for 10 min at 4° C. Cultures were incubated with NeuN antibody which reacts with fox-3 (1:500, Chemicon, Temecula, Calif.) or 2B4 antibody which reacts with huntingtin (1:500 Millipore, Zug, Switzerland), antibody which reacts with postsynaptic density protein of 95 kDa (PSD95) (Sans et al., 2000, J. Neurosci. 20:1260-71) (1:200, Affinity Bioreagents, Golden, Colo.) and antibody which reacts neuronal class III beta-tubulin Tuj1 (Jepsen et al., 2000, Cell 102(6): 753-763) (1:2000, Covance, Emerville, Calif.) in PBS containing 10% normal goat serum (NGS, Gibco, Invitrogen, Basel, Switzerland) and 0.1% Triton X-100 (TX, Fluka, Sigma, Buchs, Switzerland). […]
The synaptic status was investigated in htt171-82Q- and htt171-18Q-expressing cells. Numbers of PSD95-positive structures was quantified as described above as an indicator of postsynaptic specializations, which comprise zones where neurotransmitter receptors, particularly glutamate receptors, are clustered.

[5] = compared to non-BDNF-treated htt171-82Q sister cultures, 23 days in vitro

Molecule | neuronal viability (NeuN counts) [1] | PB (population burst) firing [2] | PB frequencies [3, 5] | inter-burst intervals (IBIs) [3, 5] | PB duration distribution ([3]; htt171-82Q cells) | size of individual PBs (numbers of individual action potentials) ([3]; htt171-82Q cells) | number of total spikes ([3]; htt171-82Q cells, 30 min recording) | PSD95-positive bouton-like plasma membrane subdomains (punctae) [4]
COC(=O)[C@@]1(O)C[C@H]2O[C@]1(C)n1c3ccccc3c3c4c(c5c6ccccc6n2c5c31)C(=O)NC4 [TrkB inhibitor, K252a] | without influencing neuronal viability | dose- and time-dependent loss of PB firing | – | – | – | – | – | –
BDNF: recombinant human brain-derived neurotrophic factor (R&D Systems) (protein, UniProt P23560 19-247, looked up) Neurotrophic factor BDNF …: APMKEANIRGQGGLAYPGVRTHGTLESVNGPKAGSRGLTSLADTFEHVIEELLDEDQKVRPNEENNKDADLYTSRVMLSSQVPLEPPLLFLLEEYKNYLDAANMSMRVRRHSDPARRGELSVCDSISEWVTAADKKTAVDMSGGTVTVLEKVPVSKGQLKQYFYETKCNPMGYTKEGCRGIDKRHWNSQCRTTQSYVRALTMDSKKRIGWRFIRIDTSCVCTLTIKRGR | – | – | significantly increased PB frequencies | decreased IBIs | extended to both the IBI and duration distributions | did not completely restore the size of individual PBs | number of total spikes remained lower | increase PSD95-positive boutons; also recorded: reversed by BDNF treatment
